According to patent US20020115843A1:

Key:
Assay in all cases: cell-based or functional assay
[1] = target: myc-His tagged DPRP-1 (expressed from pcDNA-MycHis-DPRP1) (human) (UniProt Q6V1X1)
[2] = target: dipeptidyl peptidase IV (DPPIV) (UniProt P27487)
[3] = target: myc-His tagged DPRP-2 (expressed from pcDNA-MycHis-DPRP2) (human) (UniProt Q86TI2)
myc-His tagged DPRP-2 (expressed from pcDNA-MycHis-DPRP2) (human), sequence (Q86TI2 whole entry): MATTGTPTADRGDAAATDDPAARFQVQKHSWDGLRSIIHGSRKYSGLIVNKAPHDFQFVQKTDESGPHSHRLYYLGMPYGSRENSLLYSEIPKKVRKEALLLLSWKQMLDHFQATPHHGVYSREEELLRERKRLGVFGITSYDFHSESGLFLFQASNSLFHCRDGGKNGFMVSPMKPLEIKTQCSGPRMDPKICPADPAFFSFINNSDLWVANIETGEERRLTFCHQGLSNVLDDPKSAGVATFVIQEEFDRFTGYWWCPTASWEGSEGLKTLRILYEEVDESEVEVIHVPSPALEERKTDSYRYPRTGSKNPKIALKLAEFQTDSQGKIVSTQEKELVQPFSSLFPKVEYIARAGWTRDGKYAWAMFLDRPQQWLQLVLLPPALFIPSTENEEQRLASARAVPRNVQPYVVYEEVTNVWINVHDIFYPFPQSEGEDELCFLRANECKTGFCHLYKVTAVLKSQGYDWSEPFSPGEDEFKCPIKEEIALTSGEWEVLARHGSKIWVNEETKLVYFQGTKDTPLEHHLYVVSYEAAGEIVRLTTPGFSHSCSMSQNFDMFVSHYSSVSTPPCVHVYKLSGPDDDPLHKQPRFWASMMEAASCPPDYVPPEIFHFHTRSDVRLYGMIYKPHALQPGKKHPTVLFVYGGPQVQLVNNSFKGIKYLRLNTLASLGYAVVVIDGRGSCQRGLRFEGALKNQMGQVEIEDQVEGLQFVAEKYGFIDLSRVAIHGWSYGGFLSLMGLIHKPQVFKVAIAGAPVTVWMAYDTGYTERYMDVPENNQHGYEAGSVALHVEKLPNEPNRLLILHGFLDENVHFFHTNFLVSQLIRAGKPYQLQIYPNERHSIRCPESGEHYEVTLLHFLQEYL

myc-His tagged DPRP-1 (expressed from pcDNA-MycHis-DPRP1) (human), sequence (Q6V1X1 17-898): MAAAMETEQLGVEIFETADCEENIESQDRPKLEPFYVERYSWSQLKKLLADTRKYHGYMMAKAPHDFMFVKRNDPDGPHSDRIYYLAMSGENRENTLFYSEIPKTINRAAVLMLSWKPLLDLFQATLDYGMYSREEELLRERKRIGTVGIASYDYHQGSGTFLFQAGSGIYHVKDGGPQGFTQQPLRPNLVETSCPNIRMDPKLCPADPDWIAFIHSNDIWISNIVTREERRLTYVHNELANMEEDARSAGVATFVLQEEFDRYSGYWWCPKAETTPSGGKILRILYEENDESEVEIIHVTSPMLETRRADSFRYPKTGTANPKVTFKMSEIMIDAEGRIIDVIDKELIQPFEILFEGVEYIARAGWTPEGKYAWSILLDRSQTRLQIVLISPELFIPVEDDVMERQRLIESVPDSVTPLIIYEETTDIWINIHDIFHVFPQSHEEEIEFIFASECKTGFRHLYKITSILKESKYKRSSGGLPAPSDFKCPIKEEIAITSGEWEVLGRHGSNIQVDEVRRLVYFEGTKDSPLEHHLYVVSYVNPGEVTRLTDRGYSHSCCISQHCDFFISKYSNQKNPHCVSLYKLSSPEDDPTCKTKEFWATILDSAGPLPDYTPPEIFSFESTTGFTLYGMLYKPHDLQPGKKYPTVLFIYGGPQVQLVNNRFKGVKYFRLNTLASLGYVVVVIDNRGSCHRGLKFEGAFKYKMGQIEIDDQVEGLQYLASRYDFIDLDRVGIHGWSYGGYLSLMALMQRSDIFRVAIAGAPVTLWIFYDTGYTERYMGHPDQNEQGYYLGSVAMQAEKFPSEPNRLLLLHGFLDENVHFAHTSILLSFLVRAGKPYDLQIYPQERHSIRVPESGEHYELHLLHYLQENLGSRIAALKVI
dipeptidyl peptidase IV (DPPIV), sequence (P27487 39-766 limits assumed): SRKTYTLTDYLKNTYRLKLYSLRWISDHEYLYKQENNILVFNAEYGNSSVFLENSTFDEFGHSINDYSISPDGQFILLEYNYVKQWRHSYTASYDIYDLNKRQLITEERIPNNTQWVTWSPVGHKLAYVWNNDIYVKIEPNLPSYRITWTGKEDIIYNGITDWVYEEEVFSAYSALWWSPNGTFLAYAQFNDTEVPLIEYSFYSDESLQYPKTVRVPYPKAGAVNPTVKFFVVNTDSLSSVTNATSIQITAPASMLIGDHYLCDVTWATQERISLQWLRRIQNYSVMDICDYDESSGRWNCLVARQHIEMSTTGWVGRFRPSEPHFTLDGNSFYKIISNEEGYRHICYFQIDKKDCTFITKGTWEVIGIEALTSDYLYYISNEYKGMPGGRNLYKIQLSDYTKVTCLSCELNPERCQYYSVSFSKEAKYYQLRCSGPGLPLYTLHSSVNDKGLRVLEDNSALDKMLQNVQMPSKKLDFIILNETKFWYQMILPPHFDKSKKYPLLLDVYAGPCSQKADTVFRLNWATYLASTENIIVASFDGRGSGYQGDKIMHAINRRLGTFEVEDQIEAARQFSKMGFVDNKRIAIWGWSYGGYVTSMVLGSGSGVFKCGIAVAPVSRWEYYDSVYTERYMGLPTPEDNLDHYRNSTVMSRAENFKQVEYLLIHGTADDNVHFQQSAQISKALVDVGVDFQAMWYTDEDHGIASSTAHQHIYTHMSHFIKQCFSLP

Residual activity (% of control), Ala-Pro-AMC cleavage, inhibitor at 50 µg/ml [1] | Residual activity (% of control), Ala-Pro-AMC cleavage, inhibitor at 50 µg/ml [2] | Residual activity (% of control), Ala-Pro-AMC cleavage, inhibitor at 50 µg/ml [3] | Residual activity (% of control), Ala-Pro-AMC cleavage, inhibitor at 2 µg/ml [1] | Residual activity (% of control), Ala-Pro-AMC cleavage, inhibitor at 2 µg/ml [2] | Residual activity (% of control), Ala-Pro-AMC cleavage, inhibitor at 2 µg/ml [3] | Substance
91.1 % of control | 90.7 % of control | 90.4 % of control | – | – | – | Leupeptin (peptide)
– | – | – | 97.3 % of control | 93.5 % of control | 95 % of control | Pepstatin (peptide)
